T1: Human TSLPR fragment 67-174 (human, UniProt Q9HC73)
T1 construct: extracellular domain fragment; also called 67 (23) to 174 (58)
T1 receptor fragment (looked up): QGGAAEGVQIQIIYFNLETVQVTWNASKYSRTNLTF

T2: Human TSLPR fragment 67-336 (human, UniProt Q9HC73)
T2 construct: extracellular domain fragment; also called 67 (23) to 336 (112)
T2 sequence (receptor fragment, looked up): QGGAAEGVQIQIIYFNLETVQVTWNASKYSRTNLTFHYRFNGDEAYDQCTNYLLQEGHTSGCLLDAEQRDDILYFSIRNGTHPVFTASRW

T3: Human TSLPR on the cell surface (Ba/F3/hTSLPR/hIL7Rα cells, Ba/F3/hTSLPR/hIL7Rα/Stat5-Luc cells, human … (human, UniProt Q9HC73 23-371))
T3 sequence (looked up): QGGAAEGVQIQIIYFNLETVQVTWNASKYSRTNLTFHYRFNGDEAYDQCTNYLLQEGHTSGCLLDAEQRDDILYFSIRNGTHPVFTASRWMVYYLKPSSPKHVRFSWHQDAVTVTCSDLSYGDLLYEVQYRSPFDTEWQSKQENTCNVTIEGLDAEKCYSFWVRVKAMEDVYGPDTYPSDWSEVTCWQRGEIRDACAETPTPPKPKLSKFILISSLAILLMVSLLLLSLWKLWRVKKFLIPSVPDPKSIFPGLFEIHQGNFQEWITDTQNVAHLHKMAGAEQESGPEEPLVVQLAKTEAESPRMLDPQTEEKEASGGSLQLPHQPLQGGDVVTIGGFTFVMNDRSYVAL

T4: Human TSLPR (human, UniProt Q9HC73 23-231, limits assumed)
T4 construct: also called hTSLPR; human thymic stromal lymphopoietin receptor
T4 sequence (looked up): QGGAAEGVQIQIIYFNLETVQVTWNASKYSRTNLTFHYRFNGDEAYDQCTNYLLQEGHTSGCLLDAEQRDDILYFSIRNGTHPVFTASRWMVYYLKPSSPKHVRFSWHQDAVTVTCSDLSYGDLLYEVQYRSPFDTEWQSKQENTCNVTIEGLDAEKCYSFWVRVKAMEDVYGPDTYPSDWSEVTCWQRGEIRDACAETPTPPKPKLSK


Columns and labels:
[1] = target: T1, Human TSLPR fragment 67-174; test: ELISA of antibody 1D6.C9 on human TSLPR fragments (OD650); hFc bars as control for the fragment
[2] = target: T2, Human TSLPR fragment 67-336; test: as above
[3] = target: T3, Human TSLPR on the cell surface …; test: cell-based or functional assay
Human TSLPR [4] = target: T4, Human TSLPR; test: Biacore surface plasmon resonance
Human TSLPR [5] = target: T4, Human TSLPR; test: ForteBio, solution binding kinetics

Row | binding result [1] | binding result [2] | IC50 [pM] Human TSLPR Prolif. [3] [pM] | IC50 [pM] Human TSLPR Prolif. (15% serum) [3] [pM] | IC50 [pM] Human TSLPR RGA [3] [pM] | IC50 [pM] Human TSLPR RGA (15% serum) [3] [pM] | Kd (Human TSLPR [4]) [nM] | Kd (Human TSLPR [5]) [nM] | Binder
1 | no binding | no binding | – | – | – | – | – | – | mouse anti-hTSLPR monoclonal antibody clone 1D6.C9 (antibody, V domains shown, also called mAb 1D6.C9; mouse anti-hTSLPR antibody) VH: QIQLGQSGPELKKPGETVKISCKASGYTFTTYGMSWVKQAPGKGLQWMGWINTYSGVPRYADDFKGRFAFSLETSASTAYLQIYNLKNEDTATYFCTREGFITTVVGAAGRFVYWGQGTLVTVSA VL: DIVMTQSHKFMSTSVGDRVSITCKASQDVGTAVAWYQQKPGQSPKLLIYWASTRHTGVPDRFTGSGSGTDFTLTLNNVQSEDLADYFCQQYSTYPTFGSGTKLELKR
2 | – | – | 210 | 200 | 270 | 950 | 0.101 | 0.051 | NV115-3B (Fab) (Fab, V domains shown, the constant domains of the Fab are not) VH: QVQLVQSGAEVKKPGASVKVSCKASGYTFTTYGISWLRQAPGQGLEWMGWVNTNTGNPRYAQGFTGRFVFSLDTSVSTAYLQISSLKAEDTAVYYCAREGFITTVVGAAGRFVYWGQGTLVTVSS VL: DIQMTQSPSSLSASVGDRVTITCRASQDIHTRLAWYQQKPGQPPKLLIYWASTRASGVPDRFSGTGSGTDFTLTISSLQAEDVAVYYCQQYSTYPTFGQGTKLEIK
